Assay results taken from patent US20060148016A1.

Molecular target: Alexa Fluor 594 labelled calmodulin (Molecular Probes)
Assay: gel filtration assay (Example 3): Alexa Fluor 594 labelled calmodulin eluting with the particles; reference is ferritin particles without binding molecule

- fold signal as compared to particles produced with pET-26(+)rHuLFt: 4.1 fold
Substance: Ferritin based particles expressing cbp on their surface (CBP-Human ferritin light chain fusion protein, plasmid pCBPHFI) (from UniProt P02792 2-175) (peptide)
